# Assay results published in patent US20250019438A1 (AstraZeneca / MedImmune, published 2025).
# Target: Biotinylated recombinant human CD3εδ (Acro Biosystems, CDD-H82W6) (human) (UniProt P07766)
# Assay: Octet BLI, biotinylated CD3εδ on streptavidin sensors, 1:1 model
# Chain of Biotinylated recombinant human CD3εδ (Acro Biosystems, CDD-H82W6) (human) (P07766 23-126, stated change not applied, chain 1 of 2): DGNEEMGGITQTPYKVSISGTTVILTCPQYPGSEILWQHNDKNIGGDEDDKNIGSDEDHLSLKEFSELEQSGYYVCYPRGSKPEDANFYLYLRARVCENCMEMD
# Chain of Biotinylated recombinant human CD3εδ (Acro Biosystems, CDD-H82W6) (human) (P04234 22-105, stated change not applied, chain 2 of 2, further chain): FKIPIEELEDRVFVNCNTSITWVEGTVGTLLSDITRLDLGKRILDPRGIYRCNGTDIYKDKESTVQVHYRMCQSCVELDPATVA
Binder,Kd [nM],koff [s⁻¹],kon [M⁻¹ s⁻¹]
"EGFR-CD3 DuetMab with anti-CD3 variant AZ Vκ 29 + AZ VH SN82 (bispecific antibody, part only; not given: anti-EGFR arm, constant regions, V domains shown, not shown: another chain or arm of the molecule; a dimerising Fc or GST; small tags and cut ends) VH: EVQLVESGGALVKPGGSLRLSCAASGFTFSNAWMHWVRQAPGKQLEWVAQIKDRSQTYATYYAESVKGRFTISRDDSKNTLYLQMNSLKTEDTAVYYCRGVYYANTPFDYWGQGTLVTVSS VL: DIVMTQSPLSLPVTPGEPASISCRSSQSLVHNTGNTYLSWYLQKPGQSPQSLIYKVSNRASGVPDRFSGSGSGTDFTLKISRVEAEDVGVYYCGQGTQFPFTFGSGTKVEIK",1860,0.0422,22700
"EGFR-CD3 DuetMab with anti-CD3 variant AZ Vκ 29 + AZ VH E75 (bispecific antibody, part only; not given: anti-EGFR arm, constant regions, V domains shown, not shown: another chain or arm of the molecule; a dimerising Fc or GST; small tags and cut ends) VH: EVQLVESGGALVKPGGSLRLSCAASGFTFTEAWMHWVRQAPGKQLEWVAQIKDRSQTYATYYAESVKGRFTISRDDSKNTLYLQMNSLKTEDTAVYYCRGVYYANAPFDYWGQGTLVTVSS VL: DIVMTQSPLSLPVTPGEPASISCRSSQSLVHNTGNTYLSWYLQKPGQSPQSLIYKVSNRASGVPDRFSGSGSGTDFTLKISRVEAEDVGVYYCGQGTQFPFTFGSGTKVEIK",2220,0.0404,18200
"EGFR-CD3 DuetMab with anti-CD3 variant AZ Vκ 17 + AZ VH R82 (bispecific antibody, part only; not given: anti-EGFR arm, constant regions, V domains shown, not shown: another chain or arm of the molecule; a dimerising Fc or GST; small tags and cut ends) VH: EVQLVESGGALVKPGGSLRLSCAASGFTFTRAWMHWVRQAPGKQLEWVAQIKDRSQTYATYYAESVKGRFTISRDDSKNTLYLQMNSLKTEDTAVYYCRGVYYANTPFDYWGQGTLVTVSS VL: DIVMTQSPLSLPVTPGEPASISCRSSQSLVHNTGNTYLSWYLQKPGQSPQSLIYKVSNRASGVPDRFSGSGSGTDFTLKISRVEAEDVGVYYCGQGTQAPFTFGSGTKVEIK",550,0.00928,16900
"EGFR-CD3 DuetMab with anti-CD3 variant AZ Vκ 26 + AZ VH SN75 (bispecific antibody, part only; not given: anti-EGFR arm, constant regions, V domains shown, not shown: another chain or arm of the molecule; a dimerising Fc or GST; small tags and cut ends) VH: EVQLVESGGALVKPGGSLRLSCAASGFTFSNAWMHWVRQAPGKQLEWVAQIKDRSQTYATYYAESVKGRFTISRDDSKNTLYLQMNSLKTEDTAVYYCRGVYYANAPFDYWGQGTLVTVSS VL: DIVMTQSPLSLPVTPGEPASISCRSSQSLVHNTGNTYLSWYLQKPGQSPQSLIYKVSNRASGVPDRFSGSGSGTDFTLKISRVEAEDVGVYYCGQGTQAPFSFGSGTKVEIK",949,0.0155,16300
"EGFR-CD3 DuetMab with anti-CD3 variant AZ Vκ 26 + AZ VH R82 (bispecific antibody, part only; not given: anti-EGFR arm, constant regions, V domains shown, not shown: another chain or arm of the molecule; a dimerising Fc or GST; small tags and cut ends) VH: EVQLVESGGALVKPGGSLRLSCAASGFTFTRAWMHWVRQAPGKQLEWVAQIKDRSQTYATYYAESVKGRFTISRDDSKNTLYLQMNSLKTEDTAVYYCRGVYYANTPFDYWGQGTLVTVSS VL: DIVMTQSPLSLPVTPGEPASISCRSSQSLVHNTGNTYLSWYLQKPGQSPQSLIYKVSNRASGVPDRFSGSGSGTDFTLKISRVEAEDVGVYYCGQGTQAPFSFGSGTKVEIK",411,0.00711,17300

# Further lines, results first:
Kd [nM],koff [s⁻¹],kon [M⁻¹ s⁻¹],Binder
1010,0.0282,27900,"EGFR-CD3 DuetMab with anti-CD3 variant AZ Vκ 29 + AZ VH SN75 (bispecific antibody, part only; not given: anti-EGFR arm, constant regions, V domains shown, not shown: another chain or arm of the molecule; a dimerising Fc or GST; small tags and cut ends) VH: EVQLVESGGALVKPGGSLRLSCAASGFTFSNAWMHWVRQAPGKQLEWVAQIKDRSQTYATYYAESVKGRFTISRDDSKNTLYLQMNSLKTEDTAVYYCRGVYYANAPFDYWGQGTLVTVSS VL: DIVMTQSPLSLPVTPGEPASISCRSSQSLVHNTGNTYLSWYLQKPGQSPQSLIYKVSNRASGVPDRFSGSGSGTDFTLKISRVEAEDVGVYYCGQGTQFPFTFGSGTKVEIK"
5620,0.0497,8850,"EGFR-CD3 DuetMab with anti-CD3 variant AZ Vκ 17 + AZ VH E79 (bispecific antibody, part only; not given: anti-EGFR arm, constant regions, V domains shown, not shown: another chain or arm of the molecule; a dimerising Fc or GST; small tags and cut ends) VH: EVQLVESGGALVKPGGSLRLSCAASGFTFTEAWMHWVRQAPGKQLEWVAQIKDRSQTYATYYAESVKGRFTISRDDSKNTLYLQMNSLKTEDTAVYYCRGVYYAVTPFDYWGQGTLVTVSS VL: DIVMTQSPLSLPVTPGEPASISCRSSQSLVHNTGNTYLSWYLQKPGQSPQSLIYKVSNRASGVPDRFSGSGSGTDFTLKISRVEAEDVGVYYCGQGTQAPFTFGSGTKVEIK"
2050,0.032,15600,"EGFR-CD3 DuetMab with anti-CD3 variant AZ Vκ 17 + AZ VH SN79 (bispecific antibody, part only; not given: anti-EGFR arm, constant regions, V domains shown, not shown: another chain or arm of the molecule; a dimerising Fc or GST; small tags and cut ends) VH: EVQLVESGGALVKPGGSLRLSCAASGFTFSNAWMHWVRQAPGKQLEWVAQIKDRSQTYATYYAESVKGRFTISRDDSKNTLYLQMNSLKTEDTAVYYCRGVYYAVTPFDYWGQGTLVTVSS VL: DIVMTQSPLSLPVTPGEPASISCRSSQSLVHNTGNTYLSWYLQKPGQSPQSLIYKVSNRASGVPDRFSGSGSGTDFTLKISRVEAEDVGVYYCGQGTQAPFTFGSGTKVEIK"
1640,0.0149,9100,"EGFR-CD3 DuetMab with anti-CD3 variant AZ Vκ 17 + AZ VH SN82 (bispecific antibody, part only; not given: anti-EGFR arm, constant regions, V domains shown, not shown: another chain or arm of the molecule; a dimerising Fc or GST; small tags and cut ends) VH: EVQLVESGGALVKPGGSLRLSCAASGFTFSNAWMHWVRQAPGKQLEWVAQIKDRSQTYATYYAESVKGRFTISRDDSKNTLYLQMNSLKTEDTAVYYCRGVYYANTPFDYWGQGTLVTVSS VL: DIVMTQSPLSLPVTPGEPASISCRSSQSLVHNTGNTYLSWYLQKPGQSPQSLIYKVSNRASGVPDRFSGSGSGTDFTLKISRVEAEDVGVYYCGQGTQAPFTFGSGTKVEIK"
734,0.018,24600,"EGFR-CD3 DuetMab with anti-CD3 variant AZ Vκ 17 + AZ VH R79 (bispecific antibody, part only; not given: anti-EGFR arm, constant regions, V domains shown, not shown: another chain or arm of the molecule; a dimerising Fc or GST; small tags and cut ends) VH: EVQLVESGGALVKPGGSLRLSCAASGFTFTRAWMHWVRQAPGKQLEWVAQIKDRSQTYATYYAESVKGRFTISRDDSKNTLYLQMNSLKTEDTAVYYCRGVYYAVTPFDYWGQGTLVTVSS VL: DIVMTQSPLSLPVTPGEPASISCRSSQSLVHNTGNTYLSWYLQKPGQSPQSLIYKVSNRASGVPDRFSGSGSGTDFTLKISRVEAEDVGVYYCGQGTQAPFTFGSGTKVEIK"
